According to PMC11229335, “The translocation activity of Rad54 reduces crossover outcomes during homologous recombination”:
Positions count from the first letter of the chain named.

Columns and labels:
Experiment in all cases: EMSA; 3 mM MgCl2; 0-50 nM protein, 10 nM DNA; EMSA: 35 mM Tris-Cl pH 7.5, 3 mM MgCl2, 50 mM KCl, 1 mM DTT, 10% glycerol, 30 C, 5 min; curtains: 20 mM Tris-OAc pH 7.5, 50 mM NaCl, 10 mM MgOAc2, 200 ng/ul BSA, 1 mM DTT
Conditions in all cases: protein: recombinant; label: 5'-Atto647N on strand 1; blunt
Rad54 R272A = target: T1, Rad54 R272A (Saccharomyces cerevisiae, UniProt P32863 1-898, R272A)
T1 sequence: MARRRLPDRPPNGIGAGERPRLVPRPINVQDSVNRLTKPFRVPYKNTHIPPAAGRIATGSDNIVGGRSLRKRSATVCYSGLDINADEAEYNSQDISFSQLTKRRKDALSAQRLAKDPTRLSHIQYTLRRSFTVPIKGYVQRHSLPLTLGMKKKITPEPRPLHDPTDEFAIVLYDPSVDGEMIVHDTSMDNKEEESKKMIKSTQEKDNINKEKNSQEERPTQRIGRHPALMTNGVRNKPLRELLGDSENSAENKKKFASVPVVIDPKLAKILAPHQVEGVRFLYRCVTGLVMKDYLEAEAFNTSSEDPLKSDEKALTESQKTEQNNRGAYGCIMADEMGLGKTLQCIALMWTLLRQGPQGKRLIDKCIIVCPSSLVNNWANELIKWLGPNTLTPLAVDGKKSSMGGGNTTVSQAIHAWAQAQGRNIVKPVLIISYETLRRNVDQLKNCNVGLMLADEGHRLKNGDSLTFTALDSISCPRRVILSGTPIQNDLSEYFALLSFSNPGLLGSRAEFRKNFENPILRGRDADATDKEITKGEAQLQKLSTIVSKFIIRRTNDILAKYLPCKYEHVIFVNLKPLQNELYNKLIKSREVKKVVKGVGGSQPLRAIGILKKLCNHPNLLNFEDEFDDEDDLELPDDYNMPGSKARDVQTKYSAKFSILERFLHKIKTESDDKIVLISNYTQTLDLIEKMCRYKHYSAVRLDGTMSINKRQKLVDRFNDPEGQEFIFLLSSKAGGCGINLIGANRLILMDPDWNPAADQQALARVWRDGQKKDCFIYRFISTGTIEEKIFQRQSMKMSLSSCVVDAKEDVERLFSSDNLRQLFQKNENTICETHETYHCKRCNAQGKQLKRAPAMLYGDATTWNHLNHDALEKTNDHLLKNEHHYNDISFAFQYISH

Rad54 R272Q = target: T2, Rad54 R272Q (Saccharomyces cerevisiae, UniProt P32863 1-898, R272Q)
T2 sequence: T1 sequence with A272Q

Rad54 = target: T3, Rad54 (Saccharomyces cerevisiae, UniProt P32863 1-898)
T3 sequence: T1 sequence with A272R

Measured: binding result

B1: 90-mer EMSA dsDNA (dsDNA)
DNA 1: TGTAAAACGACGGCCAGTGAATTCGAGCTCGGTACCCGGGGATCCTCTAGAGTCGACCTGCAGGCATGCAAGCTTGGCGTAATCATGGTC
DNA 2: GACCATGATTACGCCAAGCTTGCATGCCTGCAGGTCGACTCTAGAGGATCCCCGGGTACCGAGCTCGAATTCACTGGCCGTCGTTTTACA
binds: all assays above
